Results published in PMC7825114, “Studying GGDEF Domain in the Act: Minimize Conformational Frustration to Prevent Artefacts” (Life, 2021).

Molecular target: the molecule itself
Assay: SEC; FPLC (AKTA system), buffer A (Table S1); multiple runs on diluted protein to allow c-di-GMP to dissociate on the column

B1: PleD from C. crescentus (enzyme, UniProt Q9A5I5 1-454, looked up)
chain: MSARILVVDDIEANVRLLEAKLTAEYYEVSTAMDGPTALAMAARDLPDIILLDVMMPGMDGFTVCRKLKDDPTTRHIPVVLITALDGRGDRIQGLESGASDFLTKPIDDVMLFARVRSLTRFKLVIDELRQREASGRRMGVIAGAAARLDGLGGRVLIVDDNERQAQRVAAELGVEHRPVIESDPEKAKISAGGPVDLVIVNAAAKNFDGLRFTAALRSEERTRQLPVLAMVDPDDRGRMVKALEIGVNDILSRPIDPQELSARVKTQIQRKRYTDYLRNNLDHSLELAVTDQLTGLHNRRYMTGQLDSLVKRATLGGDPVSALLIDIDFFKKINDTFGHDIGDEVLREFALRLASNVRAIDLPCRYGGEEFVVIMPDTALADALRIAERIRMHVSGSPFTVAHGREMLNVTISIGVSATAGEGDTPEALLKRADEGVYQAKASGRNAVVGKAA
notes: PleD, diguanylate cyclase of C. crescentus; In the functional assay the protein was also used after treatment with NaF and BeCl2 (beryllium fluoride, mimics phosphorylation); source: E. coli BL21 (DE3), purified (Ni2+-IMAC HisTrap, multiple FPLC runs)
  stoichiometry N: 2
